This passage reports Km and kcat results from paper PMC1266349, “Nonnatural amino acid incorporation into the methionine 214 position of the metzincin Pseudomonas aeruginosa alkaline protease” (BMC Biochemistry, 2005).

This data set concerns N=C(N)NCCC[C@H](NC(=O)OCc1ccccc1)C(=O)N[C@@H](CCCNC(=N)N)C(=O)Nc1ccc([N+](=O)[O-])cc1. Nature of the data set: purified protein. The following applies: 20 mM HEPES, 100 μg enzyme per assay; revised conditions, unlabelled recombinant protein.

As to “AprA (alkaline protease from Pseudomonas aeruginosa), mature full-length (Pseudomonas aeruginosa PAO1)”, the Km (commonly the substrate concentration at which the rate is half of its maximum) was 15.4 ± 0.9 µM; the kcat (as a rule, the number of substrate molecules converted per active site and unit of time at saturation) came out at 0.57 ± 0.02 min⁻¹.
